Experimental findings from article PMC4950921 are described below.

Test [1] addresses EphA2 L223R/L254R/V255R mutant (UniProt P29317).
Test [2] shares this target. The source holds these as a separate data set.

Sequence of UniProt P29317 (P29317 24-976 L223R/L254R/V255R): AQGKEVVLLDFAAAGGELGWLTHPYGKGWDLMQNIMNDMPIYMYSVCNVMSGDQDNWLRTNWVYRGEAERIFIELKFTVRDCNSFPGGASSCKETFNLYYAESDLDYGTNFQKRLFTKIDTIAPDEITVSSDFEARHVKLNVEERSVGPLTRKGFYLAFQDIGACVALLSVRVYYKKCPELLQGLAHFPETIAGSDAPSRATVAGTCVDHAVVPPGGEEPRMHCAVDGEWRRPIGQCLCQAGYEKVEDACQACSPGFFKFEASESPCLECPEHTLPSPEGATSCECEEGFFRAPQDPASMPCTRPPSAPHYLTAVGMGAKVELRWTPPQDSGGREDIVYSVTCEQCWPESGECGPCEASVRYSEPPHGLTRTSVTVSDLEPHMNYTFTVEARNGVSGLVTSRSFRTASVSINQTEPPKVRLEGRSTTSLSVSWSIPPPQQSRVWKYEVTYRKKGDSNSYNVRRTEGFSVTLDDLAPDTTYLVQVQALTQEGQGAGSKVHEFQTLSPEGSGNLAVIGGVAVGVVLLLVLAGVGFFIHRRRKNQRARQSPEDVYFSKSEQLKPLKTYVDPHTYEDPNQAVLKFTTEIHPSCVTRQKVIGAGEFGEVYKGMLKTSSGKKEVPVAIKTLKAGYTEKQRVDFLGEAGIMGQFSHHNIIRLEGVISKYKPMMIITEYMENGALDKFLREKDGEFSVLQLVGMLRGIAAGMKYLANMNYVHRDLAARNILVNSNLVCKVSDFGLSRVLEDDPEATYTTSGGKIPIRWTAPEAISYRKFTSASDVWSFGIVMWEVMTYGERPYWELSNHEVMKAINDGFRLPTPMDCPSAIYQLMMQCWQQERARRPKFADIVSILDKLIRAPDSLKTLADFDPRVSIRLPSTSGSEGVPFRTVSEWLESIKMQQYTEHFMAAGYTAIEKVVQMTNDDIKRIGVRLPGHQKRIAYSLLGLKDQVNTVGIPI

B1: YSA peptide with the GSGSK linker (peptide)
peptide: YSAYPDSVPMMSGSGSK
B1 had a decrease of EphA2 Ser897 phosphorylation, Western blot, HEK293T, 6 uM YSA in test [1] of 35%. The suppression of migration of transfected HEK293T cells, transwell assay, 6 uM YSA in test [2] came to 25%.
